Laboratory results as given in US11155612B2, “vNAR antibody which binds VEGF for use in dogs or cats” (CENTRO DE INVESTIGACIÓN CIENTÍFICA Y DE EDUCACIÓN SUPERIOR …, priority 2017, dated 2021).
Numbering of substitutions follows the chain as printed. Names and notes keep the numbering of the source.

T1: VEGF165 (Homo sapiens, UniProt P15692)
T1 sequence (P15692 27-191 isoform P15692-4): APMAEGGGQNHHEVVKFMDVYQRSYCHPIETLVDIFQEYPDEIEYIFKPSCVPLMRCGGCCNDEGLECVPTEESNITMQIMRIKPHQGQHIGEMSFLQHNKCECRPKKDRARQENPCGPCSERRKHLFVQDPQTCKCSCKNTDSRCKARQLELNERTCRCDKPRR

B1: P98Y: anti-VEGF vNAR protein, P98Y mutation in CDR3 of parental V13; corresponds to SEQ ID NO:1 (protein)
chain: ASLDQTPRTATRETGESLSINCVLTDTSHILFGTKWLWNNPGSTDWESITIGGRYAESVNNQAKSFSLQIKDLTVEDSGTYYCKAQTIGRRKNLLPRYLVNGIAAMGYSSSDYDGAGTVLTVN
modifications: Artificial sequence against VEGF, with single mutation in the CDR3 region from a parenteral vNAR sequence.
B2: R97A: anti-VEGF vNAR mutant, R97A mutation in CDR3 of parental V13 (protein)
chain: B1 chain with R97A, Y98P

Columns and labels:
[1] = test system: human umbilical vein endothelial cells (HUVEC) expressing GFP and normal human dermal fibroblasts (NHDF); test: Angiogenesis assay (vascular tube formation, HUVEC/NHDF co-culture); type: cell-based; conditions: VEGF 4 ng/ml; vNAR at eight concentrations
Description: In the vascular tube formation assay, a co-culture system of human umbilical vein endothelial cells (HUVEC) expressing GFP and normal human dermal fibroblasts (NHDF) was used. For cell seeding on day 0, one cryogenic vial of NHDF cells was thawed and resuspended in 12 ml of complete seeding medium. Then, 100 μl of this solution was added per well of a 96-well plate. The cells were incubated at room temperature for 1 hour. Then, 1 cryogenic vial of HUVECs was thawed and resuspended in 12 ml of complete seeding medium. HUVEC (100 μL per well) were seeded into the same plate as NHDFs. The cells were incubated at room temperature for another hour. The plate was then examined in an IncuCyte ZOOM and scanned using the “FOIL” scan type. After 24 hours, the culture medium was replaced with 150 μl of growth medium.
Forty-eight hours after seeding, the cells were treated with VEGF at 4 ng/ml and the test compounds at eight concentrations.
Serial dilutions of the compounds were prepared using assay media containing VEGF up to the final concentrations in FIG. 3. Then, 150 μl of medium containing the vNARs were added. In untreated wells, media without VEGF were added. For wells without compound, media with VEGF was added. […]
The formation of vessel tubes by fluorescently-labeled HUVECs was measured using live-cell imaging, and the effects of the vNARs on this process were assessed.

[2] = test system: Murine Lewis lung cancer cell lines; test: VEGF inhibition in vivo, ND-GFP nude mice with Lewis lung cancer footpad implant; conditions: for capillary growth around the tumor (vessel density): 27 μg vNAR i.p. twice per week, 6 doses over 18 days, vs untreated controls; for Normalized tumor weight / reduction of the tumor (weight), statistical significance: after day 18, 27 μg vNAR i.p., 6 doses; for Normalized tumor weight: n=8, PBS = 1.0 (100%); for reduction of the tumor (weight), statistical significance: vs PBS
Description: In vivo tests were conducted at AntiCancer, Inc. (San Diego, Calif., USA) in accordance with its protocols for handling animals approved under Assurance #A3873-1, and also approved by the Bioethics Committee of the Center for Scientific Research and Higher Education of Ensenada, Baja California (CICESE), approval number 2014/03. In order to minimize the suffering of the animals, anesthesia and analgesics were used for all surgical experiments. Animals were anesthetized by subcutaneous injection of a solution of 0.02 ml of ketamine 20 mg/kg, 15.1 mg/kg xylazine, and 0.48 mg/kg of acepromazine maleate. Animals responses during surgery were monitored to ensure adequate depth of anesthesia. The animals were observed daily and humanely sacrificed through CO2 inhalation when they met the following endpoint criteria: severe tumor burden (more than 20 mm in diameter), prostration, significant body weight loss, difficulty breathing, rotational motion, and body temperature drop. Animals were housed in a barrier facility, on a high-efficiency particulate arrestance-filtered rack under standard conditions of light/dark cycles of 12 hours. Animals were fed an autoclaved laboratory rodent diet. Eight nestin-driven GFP (ND-GFP) mice were used [Amoh Y, Yang M, Li L, Reynoso J, Bouvet M, Moossa A R, Katsuoka K, Hoffman R M. Nestin-driven green fluorescent protein transgenic nude mouse for imaging human tumor angiogenesis. Cancer Res. 2005; 65: 5352-5357], individuals from 6 to 10 weeks old were used per group. ND-GFP mice expressed GFP in nascent blood vessels. Murine Lewis lung cancer cell lines, stably transfected with red fluorescent protein (RFP) were used for implantation of foot cancer cells in the plantar pad (5×10^5 cells in 25 μl). The treatment began 3 days after implantation of cancer cells. All vNARs were administered intraperitoneally (i.p.) twice per week for a total of 6 doses over 18 days; each administration contained 27 μg of VNAR in 180 μl of PBS. After day 18, the implanted footpad of the mice in each group was imaged for GFP-expressing blood vessels. The vessel density was calculated as the total length of the blood vessels divided by the observed area. Each individual tumor was collected and, the weighed (g).

VEGF165 = molecular target: T1, VEGF165; test: ELISA test recognition; type: binding; conditions: ELISA plates coated with VEGF165; compared with parental V13
Description: Decreasing concentrations of each vNAR were added to measure the recognition of VEGF compared to V13, which is the parental antibody.
ELISA plates were coated with the same amount of VEGF165; then, the wells were blocked with 3% BSA, several dilutions of clones P98Y and R97A, and the parental sequence (V13) were added.

| Molecule | inhibition of angiogenesis (tube length and network branching) [1] | capillary growth around the tumor (vessel density) [2] | Normalized tumor weight [2] | reduction of the tumor (weight), statistical significance [2] | reduction of the tumor (weight), statistical significance ([2]; listed as SEQ ID NO:1) | recognition of VEGF (VEGF165) |
| --- | --- | --- | --- | --- | --- | --- |
| B1 | especially potent inhibitors of angiogenesis | reduced capillary growth around the tumor | 0.71 | statistically significant reduction of the tumor | allows reducing the size of the tumor masses | greater recognition of VEGF than the parental |
| B2 |  | comparable with parental v13 VNAR | 0.76 |  |  |  |
